From patent US20220204580A1 (AstraZeneca / MedImmune, published 2022)
Numbered stars: 1 amine (or outer) side, 2 acyl side, 3 side chain; on linkers, the order of the positions; unused ones are H or OH. Bridge positions count the residues as written; N and C are the ends. Square brackets hold non-standard residues; d marks the D form. Side chains are listed from the residue outwards. Ends that are not written are not given here. * marks the point of attachment. C18 diacid = O=C(O)CCCCCCCCCCCCCCCCC(=O)*; γGlu = O=C(O)[C@H](CCC(=O)[*:2])N[*:1]; αMeF = C[C@](N)(Cc1ccccc1)C(=O)O; Dab = NCC[C@H](N)C(=O)O; Aib = CC(C)(N)C(=O)O

T1: human calcitonin receptor (human, UniProt P30988 25-474)
T1 sequence (looked up): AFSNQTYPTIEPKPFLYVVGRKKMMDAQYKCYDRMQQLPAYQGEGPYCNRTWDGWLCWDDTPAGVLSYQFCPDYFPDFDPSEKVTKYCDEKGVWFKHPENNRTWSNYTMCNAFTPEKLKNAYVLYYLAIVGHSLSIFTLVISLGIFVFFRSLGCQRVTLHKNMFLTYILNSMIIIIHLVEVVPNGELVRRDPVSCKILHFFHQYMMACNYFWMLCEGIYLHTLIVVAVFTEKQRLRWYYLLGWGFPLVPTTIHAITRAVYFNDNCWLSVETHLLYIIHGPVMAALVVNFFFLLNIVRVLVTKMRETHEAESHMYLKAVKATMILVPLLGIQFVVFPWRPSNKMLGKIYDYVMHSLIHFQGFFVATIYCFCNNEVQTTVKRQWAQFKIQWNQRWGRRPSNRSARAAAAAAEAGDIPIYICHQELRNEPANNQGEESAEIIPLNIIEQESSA

T2: human amylin receptor (calcitonin receptor co-expressed with receptor activity modifying protein, RAMP3) (human, UniProt P30988 25-474; O60896 24-148)
T2 sequence (looked up) 1: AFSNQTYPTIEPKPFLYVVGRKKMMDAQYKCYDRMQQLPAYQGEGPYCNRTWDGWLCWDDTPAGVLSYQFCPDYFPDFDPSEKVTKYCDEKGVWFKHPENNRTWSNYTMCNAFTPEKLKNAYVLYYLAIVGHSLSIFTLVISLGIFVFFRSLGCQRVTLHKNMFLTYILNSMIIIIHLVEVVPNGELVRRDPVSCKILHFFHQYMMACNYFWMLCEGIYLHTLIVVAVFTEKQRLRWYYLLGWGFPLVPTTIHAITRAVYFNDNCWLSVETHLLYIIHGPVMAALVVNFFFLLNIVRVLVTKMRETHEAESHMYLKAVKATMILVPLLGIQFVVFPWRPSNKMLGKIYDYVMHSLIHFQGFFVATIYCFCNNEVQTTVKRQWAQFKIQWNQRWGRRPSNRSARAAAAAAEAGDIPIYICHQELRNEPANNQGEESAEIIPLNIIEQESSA
T2 sequence (looked up) 2: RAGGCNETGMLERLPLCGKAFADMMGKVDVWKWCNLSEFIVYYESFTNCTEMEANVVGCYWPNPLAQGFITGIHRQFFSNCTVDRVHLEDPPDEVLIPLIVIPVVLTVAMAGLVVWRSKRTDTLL


Assays:
[1] = biological target: T1, human calcitonin receptor; assay: cell-based or functional assay
[2] = biological target: T2, human amylin receptor (calcitonin …); assay: cell-based or functional assay

EC50 (cAMP production) [1]	EC50 (cAMP production) [2]	Ratio (EC50 hCTR / EC50 hAMYR3) [2]	Binder
0.898 nM	0.061 nM	14.7	K([γGlu-C18 diacid])CNTATCATQRLANFL[Aib]HSSNNFGPI[dL]PPTNVGSNTY-NH2 (disulfide 2-7; N-terminus assumed; SMILES CC[C@H](C)[C@H](NC(=O)[C@@H]1CCCN1C(=O)CNC(=O)[C@H](Cc1ccccc1)NC(=O)[C@H](CC(N)=O)NC(=O)[C@H](CC(N)=O)NC(=O)[C@H](CO)NC(=O)[C@H](CO)NC(=O)[C@H](Cc1c[nH]cn1)NC(=O)C(C)(C)NC(=O)[C@H](CC(C)C)NC(=O)[C@H](Cc1ccccc1)NC(=O)[C@H](CC(N)=O)NC(=O)[C@H](C)NC(=O)[C@H](CC(C)C)NC(=O)[C@H](CCCNC(=N)N)NC(=O)[C@H](CCC(N)=O)NC(=O)[C@@H](NC(=O)[C@H](C)NC(=O)[C@@H]1CSSC[C@H](NC(=O)[C@@H](N)CCCCNC(=O)CC[C@H](NC(=O)CCCCCCCCCCCCCCCCC(=O)O)C(=O)O)C(=O)N[C@@H](CC(N)=O)C(=O)N[C@@H]([C@@H](C)O)C(=O)N[C@@H](C)C(=O)N[C@@H]([C@@H](C)O)C(=O)N1)[C@@H](C)O)C(=O)N[C@H](CC(C)C)C(=O)N1CCC[C@H]1C(=O)N1CCC[C@H]1C(=O)N[C@H](C(=O)N[C@@H](CC(N)=O)C(=O)N[C@H](C(=O)NCC(=O)N[C@@H](CO)C(=O)N[C@@H](CC(N)=O)C(=O)N[C@H](C(=O)N[C@@H](Cc1ccc(O)cc1)C(N)=O)[C@@H](C)O)C(C)C)[C@@H](C)O) [Peptide 151 (SEQ ID NO: 151)]
0.728 nM	0.191 nM	3.8	K([γGlu-C18 diacid])KCNTATCATQRLANFL[Aib]HSSNNFGPILPPTNVGPNTY-NH2 (disulfide 3-8; N-terminus assumed; SMILES CC[C@H](C)[C@H](NC(=O)[C@@H]1CCCN1C(=O)CNC(=O)[C@H](Cc1ccccc1)NC(=O)[C@H](CC(N)=O)NC(=O)[C@H](CC(N)=O)NC(=O)[C@H](CO)NC(=O)[C@H](CO)NC(=O)[C@H](Cc1c[nH]cn1)NC(=O)C(C)(C)NC(=O)[C@H](CC(C)C)NC(=O)[C@H](Cc1ccccc1)NC(=O)[C@H](CC(N)=O)NC(=O)[C@H](C)NC(=O)[C@H](CC(C)C)NC(=O)[C@H](CCCNC(=N)N)NC(=O)[C@H](CCC(N)=O)NC(=O)[C@@H](NC(=O)[C@H](C)NC(=O)[C@@H]1CSSC[C@H](NC(=O)[C@H](CCCCN)NC(=O)[C@@H](N)CCCCNC(=O)CC[C@H](NC(=O)CCCCCCCCCCCCCCCCC(=O)O)C(=O)O)C(=O)N[C@@H](CC(N)=O)C(=O)N[C@@H]([C@@H](C)O)C(=O)N[C@@H](C)C(=O)N[C@@H]([C@@H](C)O)C(=O)N1)[C@@H](C)O)C(=O)N[C@@H](CC(C)C)C(=O)N1CCC[C@H]1C(=O)N1CCC[C@H]1C(=O)N[C@H](C(=O)N[C@@H](CC(N)=O)C(=O)N[C@H](C(=O)NCC(=O)N1CCC[C@H]1C(=O)N[C@@H](CC(N)=O)C(=O)N[C@H](C(=O)N[C@@H](Cc1ccc(O)cc1)C(N)=O)[C@@H](C)O)C(C)C)[C@@H](C)O) [Peptide 148 (SEQ ID NO: 148)]
3.93 nM	0.329 nM	11.9	K([γGlu-C18 diacid])CNTATCATQRLANFL[Aib]HSSNNFGPILPPTRVGSNTY-NH2 (disulfide 2-7; N-terminus assumed; SMILES CC[C@H](C)[C@H](NC(=O)[C@@H]1CCCN1C(=O)CNC(=O)[C@H](Cc1ccccc1)NC(=O)[C@H](CC(N)=O)NC(=O)[C@H](CC(N)=O)NC(=O)[C@H](CO)NC(=O)[C@H](CO)NC(=O)[C@H](Cc1c[nH]cn1)NC(=O)C(C)(C)NC(=O)[C@H](CC(C)C)NC(=O)[C@H](Cc1ccccc1)NC(=O)[C@H](CC(N)=O)NC(=O)[C@H](C)NC(=O)[C@H](CC(C)C)NC(=O)[C@H](CCCNC(=N)N)NC(=O)[C@H](CCC(N)=O)NC(=O)[C@@H](NC(=O)[C@H](C)NC(=O)[C@@H]1CSSC[C@H](NC(=O)[C@@H](N)CCCCNC(=O)CC[C@H](NC(=O)CCCCCCCCCCCCCCCCC(=O)O)C(=O)O)C(=O)N[C@@H](CC(N)=O)C(=O)N[C@@H]([C@@H](C)O)C(=O)N[C@@H](C)C(=O)N[C@@H]([C@@H](C)O)C(=O)N1)[C@@H](C)O)C(=O)N[C@@H](CC(C)C)C(=O)N1CCC[C@H]1C(=O)N1CCC[C@H]1C(=O)N[C@H](C(=O)N[C@@H](CCCNC(=N)N)C(=O)N[C@H](C(=O)NCC(=O)N[C@@H](CO)C(=O)N[C@@H](CC(N)=O)C(=O)N[C@H](C(=O)N[C@@H](Cc1ccc(O)cc1)C(N)=O)[C@@H](C)O)C(C)C)[C@@H](C)O) [Peptide 155 (SEQ ID NO: 155)]
1.54 nM	0.574 nM	2.7	K([γGlu-C18 diacid])KCNTATCATQRLANFL[Aib]HSSGNFGPILPPTNVGSNTY-NH2 (disulfide 3-8; N-terminus assumed; SMILES CC[C@H](C)[C@H](NC(=O)[C@@H]1CCCN1C(=O)CNC(=O)[C@H](Cc1ccccc1)NC(=O)[C@H](CC(N)=O)NC(=O)CNC(=O)[C@H](CO)NC(=O)[C@H](CO)NC(=O)[C@H](Cc1c[nH]cn1)NC(=O)C(C)(C)NC(=O)[C@H](CC(C)C)NC(=O)[C@H](Cc1ccccc1)NC(=O)[C@H](CC(N)=O)NC(=O)[C@H](C)NC(=O)[C@H](CC(C)C)NC(=O)[C@H](CCCNC(=N)N)NC(=O)[C@H](CCC(N)=O)NC(=O)[C@@H](NC(=O)[C@H](C)NC(=O)[C@@H]1CSSC[C@H](NC(=O)[C@H](CCCCN)NC(=O)[C@@H](N)CCCCNC(=O)CC[C@H](NC(=O)CCCCCCCCCCCCCCCCC(=O)O)C(=O)O)C(=O)N[C@@H](CC(N)=O)C(=O)N[C@@H]([C@@H](C)O)C(=O)N[C@@H](C)C(=O)N[C@@H]([C@@H](C)O)C(=O)N1)[C@@H](C)O)C(=O)N[C@@H](CC(C)C)C(=O)N1CCC[C@H]1C(=O)N1CCC[C@H]1C(=O)N[C@H](C(=O)N[C@@H](CC(N)=O)C(=O)N[C@H](C(=O)NCC(=O)N[C@@H](CO)C(=O)N[C@@H](CC(N)=O)C(=O)N[C@H](C(=O)N[C@@H](Cc1ccc(O)cc1)C(N)=O)[C@@H](C)O)C(C)C)[C@@H](C)O) [Peptide 154 (SEQ ID NO: 154)]
4.18 nM	0.179 nM	23.4	K([γGlu-C18 diacid])CNTATCATQRLANFL[Aib]HSS[Dab]NFGPILPPTNVGSNTY-NH2 (disulfide 2-7; N-terminus assumed; SMILES CC[C@H](C)[C@H](NC(=O)[C@@H]1CCCN1C(=O)CNC(=O)[C@H](Cc1ccccc1)NC(=O)[C@H](CC(N)=O)NC(=O)[C@H](CCN)NC(=O)[C@H](CO)NC(=O)[C@H](CO)NC(=O)[C@H](Cc1c[nH]cn1)NC(=O)C(C)(C)NC(=O)[C@H](CC(C)C)NC(=O)[C@H](Cc1ccccc1)NC(=O)[C@H](CC(N)=O)NC(=O)[C@H](C)NC(=O)[C@H](CC(C)C)NC(=O)[C@H](CCCNC(=N)N)NC(=O)[C@H](CCC(N)=O)NC(=O)[C@@H](NC(=O)[C@H](C)NC(=O)[C@@H]1CSSC[C@H](NC(=O)[C@@H](N)CCCCNC(=O)CC[C@H](NC(=O)CCCCCCCCCCCCCCCCC(=O)O)C(=O)O)C(=O)N[C@@H](CC(N)=O)C(=O)N[C@@H]([C@@H](C)O)C(=O)N[C@@H](C)C(=O)N[C@@H]([C@@H](C)O)C(=O)N1)[C@@H](C)O)C(=O)N[C@@H](CC(C)C)C(=O)N1CCC[C@H]1C(=O)N1CCC[C@H]1C(=O)N[C@H](C(=O)N[C@@H](CC(N)=O)C(=O)N[C@H](C(=O)NCC(=O)N[C@@H](CO)C(=O)N[C@@H](CC(N)=O)C(=O)N[C@H](C(=O)N[C@@H](Cc1ccc(O)cc1)C(N)=O)[C@@H](C)O)C(C)C)[C@@H](C)O) [Peptide 150 (SEQ ID NO: 150)]
2.02 nM	0.221 nM	9	K([γGlu-C18 diacid])CNTATCATQRLANFLRHSSNN[αMeF]GPILPPTEVGSNTY-NH2 (disulfide 2-7; N-terminus assumed; SMILES CC[C@H](C)[C@H](NC(=O)[C@@H]1CCCN1C(=O)CNC(=O)[C@](C)(Cc1ccccc1)NC(=O)[C@H](CC(N)=O)NC(=O)[C@H](CC(N)=O)NC(=O)[C@H](CO)NC(=O)[C@H](CO)NC(=O)[C@H](Cc1c[nH]cn1)NC(=O)[C@H](CCCNC(=N)N)NC(=O)[C@H](CC(C)C)NC(=O)[C@H](Cc1ccccc1)NC(=O)[C@H](CC(N)=O)NC(=O)[C@H](C)NC(=O)[C@H](CC(C)C)NC(=O)[C@H](CCCNC(=N)N)NC(=O)[C@H](CCC(N)=O)NC(=O)[C@@H](NC(=O)[C@H](C)NC(=O)[C@@H]1CSSC[C@H](NC(=O)[C@@H](N)CCCCNC(=O)CC[C@H](NC(=O)CCCCCCCCCCCCCCCCC(=O)O)C(=O)O)C(=O)N[C@@H](CC(N)=O)C(=O)N[C@@H]([C@@H](C)O)C(=O)N[C@@H](C)C(=O)N[C@@H]([C@@H](C)O)C(=O)N1)[C@@H](C)O)C(=O)N[C@@H](CC(C)C)C(=O)N1CCC[C@H]1C(=O)N1CCC[C@H]1C(=O)N[C@H](C(=O)N[C@@H](CCC(=O)O)C(=O)N[C@H](C(=O)NCC(=O)N[C@@H](CO)C(=O)N[C@@H](CC(N)=O)C(=O)N[C@H](C(=O)N[C@@H](Cc1ccc(O)cc1)C(N)=O)[C@@H](C)O)C(C)C)[C@@H](C)O) [Peptide 16 (SEQ ID NO: 16)]
